# Laboratory results reported in paper PMC4368798, “Protein-Binding RNA Aptamers Affect Molecular Interactions Distantly from Their Binding Sites”.
# T1: GFD of uPA (Homo sapiens, UniProt P00749 24-63)
# T1 chain: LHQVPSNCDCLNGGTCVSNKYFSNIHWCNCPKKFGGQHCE
# B1: upanap-126 (XNA)
# RNA: GGGGCCACCAACGACAUUCAUUCGCACGCUGUGUGGGGAUUAGUCCCGAUGUUGUUGAUAUAAAUAGUGCCCAUGGAUC
# modifications: 2'-fluoro pyrimidines (2'-F-C, 2'-F-U)
# B2: control RNA (XNA)
# RNA: GGGGCCACCAACGACAUUAACUCACGUUGCAACUAAUACGCUGAGUGGAAACCGUUGAUAUAAAUAGUGCCCAUGGAUC
# modifications: 2'-fluoro pyrimidines (2'-F-C, 2'-F-U)
# B3: upanap-12 (XNA)
# RNA: GGGGCCACCAACGACAUUUGCGACUGUUAUAACCUAACAGCGACGUAAAGAUAGUUGAUAUAAAUAGUGCCCAUGGAUC
# modifications: 2'-fluoro pyrimidines (2'-F-C, 2'-F-U)
# Tests used:
# pro-uPA wild type [1] = target: T2, pro-uPA wild type (Homo sapiens, UniProt P00749 21-431); experiment: competition, 125I-pro-uPA cell binding; U937 cells, 1 h, 4 C; effect lost on prolonged incubation; SPR: HBS (20 mM HEPES, 140 mM NaCl, pH 7.4), 2 mM MgCl2, 0.1% BSA, 0.005% Tween 20, temperature not stated; SAXS: HBS, 2 mM MgCl2, 25 C; conditions: protein: recombinant
# pro-uPA wild type;uPAR [2] = target: T3, pro-uPA wild type;uPAR (Homo sapiens;Homo sapiens, UniProt P00749;Q03405 21-431;23-305, |); experiment: SPR; 100 nM aptamer on captured pro-uPA:uPAR; SPR: HBS (20 mM HEPES, 140 mM NaCl, pH 7.4), 2 mM MgCl2, 0.1% BSA, 0.005% Tween 20, temperature not stated; SAXS: HBS, 2 mM MgCl2, 25 C; conditions: protein: recombinant;recombinant; tags: ;; copies: 1;1
# pro-uPA wild type [3] = target: T2, pro-uPA wild type; experiment: SPR competition; up to 200 nM control RNA; no effect on pro-uPA binding to LRP-1A; SPR: HBS (20 mM HEPES, 140 mM NaCl, pH 7.4), 2 mM MgCl2, 0.1% BSA, 0.005% Tween 20, temperature not stated; SAXS: HBS, 2 mM MgCl2, 25 C; conditions: protein: recombinant
# pro-uPA wild type;uPAR [4] = target: T3, pro-uPA wild type;uPAR; experiment: SPR competition; 200 nM control RNA; no significant effect on vitronectin binding; SPR: HBS (20 mM HEPES, 140 mM NaCl, pH 7.4), 2 mM MgCl2, 0.1% BSA, 0.005% Tween 20, temperature not stated; SAXS: HBS, 2 mM MgCl2, 25 C; conditions: protein: recombinant;recombinant; tags: ;; copies: 1;1
# pro-uPA wild type [5] = target: T2, pro-uPA wild type; experiment: SPR competition; inhibition of 4 nM pro-uPA binding to immobilized uPAR; SPR: HBS (20 mM HEPES, 140 mM NaCl, pH 7.4), 2 mM MgCl2, 0.1% BSA, 0.005% Tween 20, temperature not stated; SAXS: HBS, 2 mM MgCl2, 25 C; conditions: protein: recombinant; 79 nt
# ATF of uPA = ATF of uPA (UniProt P00749 21-151); experiment: SPR competition; inhibition of 4 nM ATF binding to immobilized uPAR; SPR: HBS (20 mM HEPES, 140 mM NaCl, pH 7.4), 2 mM MgCl2, 0.1% BSA, 0.005% Tween 20, temperature not stated; SAXS: HBS, 2 mM MgCl2, 25 C; conditions: protein: commercial; 79 nt
# pro-uPA Y284/127A = pro-uPA Y284/127A (Homo sapiens, UniProt P00749 21-431, Y304A); experiment: SPR competition; still inhibits uPAR binding (data not shown); SPR: HBS (20 mM HEPES, 140 mM NaCl, pH 7.4), 2 mM MgCl2, 0.1% BSA, 0.005% Tween 20, temperature not stated; SAXS: HBS, 2 mM MgCl2, 25 C; conditions: protein: recombinant; 79 nt
# pro-uPA R391/231A = pro-uPA R391/231A (Homo sapiens, UniProt P00749 21-431, R411A); experiment: as above; conditions: protein: recombinant; 79 nt
# GFD of uPA = target: T1, GFD of uPA; experiment: SPR competition; 50 nM aptamer; no inhibition of GFD binding to uPAR; SPR: HBS (20 mM HEPES, 140 mM NaCl, pH 7.4), 2 mM MgCl2, 0.1% BSA, 0.005% Tween 20, temperature not stated; SAXS: HBS, 2 mM MgCl2, 25 C; conditions: protein: recombinant; 79 nt
# T3 sequence (Q03405 23-305, chain 2 of 2, other chains not shown): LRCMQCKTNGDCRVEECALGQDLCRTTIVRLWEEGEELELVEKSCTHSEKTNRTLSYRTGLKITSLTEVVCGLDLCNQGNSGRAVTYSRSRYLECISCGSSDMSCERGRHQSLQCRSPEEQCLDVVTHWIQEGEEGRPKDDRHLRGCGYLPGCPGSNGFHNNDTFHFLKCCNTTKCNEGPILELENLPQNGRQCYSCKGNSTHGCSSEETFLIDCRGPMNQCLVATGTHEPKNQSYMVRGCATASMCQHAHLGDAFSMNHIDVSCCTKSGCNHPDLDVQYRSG
binder,measurement,setting,value
B1,IC50,pro-uPA wild type [1],~500 nM
same,binding result,pro-uPA wild type;uPAR [2],binds
B2,binding result,pro-uPA wild type [3],no binding
same,binding result,pro-uPA wild type;uPAR [4],no binding
B3,IC50,pro-uPA wild type [5],2.2 ± 0.1 nM
same,IC50,ATF of uPA,1.8 ± 0.2 nM
same,binding result,pro-uPA Y284/127A,binds
same,binding result,pro-uPA R391/231A,binds
same,binding result,GFD of uPA,no binding
